This passage reports Kd results from patent US20240025996A1 (FRED HUTCHINSON CANCER CENTER, published 2024).

The assay addresses T1, soluble ROR1 ectodomain (UniProt Q01973 30-406).
T1 construct: extracellular domain; also called ROR1-A647
Description: method not stated in the legend (FIGS. 1A-1C).

As usually defined, the Kd is the free concentration of one partner at which half of the binding sites on the other are occupied at equilibrium, for simple one-to-one binding. Lower therefore signals a tighter complex.

T1 sequence (Q01973 30-406 limits assumed): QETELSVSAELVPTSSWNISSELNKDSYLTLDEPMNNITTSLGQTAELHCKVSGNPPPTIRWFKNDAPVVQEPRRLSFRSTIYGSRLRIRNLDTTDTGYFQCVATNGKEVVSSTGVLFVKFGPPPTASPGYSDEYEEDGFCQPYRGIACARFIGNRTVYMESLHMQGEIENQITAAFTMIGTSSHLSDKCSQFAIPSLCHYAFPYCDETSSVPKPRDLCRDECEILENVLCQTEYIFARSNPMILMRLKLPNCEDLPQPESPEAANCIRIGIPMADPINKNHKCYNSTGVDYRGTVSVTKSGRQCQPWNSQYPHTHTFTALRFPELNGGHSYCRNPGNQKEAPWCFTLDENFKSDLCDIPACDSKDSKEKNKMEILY

B1: Nb11 WT (VHH)
VHH: QVKLVQSGGGLVQAGGSLRLSCAASGSIFSSASMGWYRQAPGKPREQVASITRDGNTYYEDDVKGRFTISRDNARSTGYLQMNSLTPEDTGVYYCNVYQLGFYDKWGQGTQVIVSS
notes: also called free Nb11
In the case of B1, binding was characterised by a dissociation constant (Kd) of 2 nM.

B2: Nb14 WT (VHH)
VHH: QVKLVQSGGGLVQTGGSLRLSCAASEITFDMYSMGWYREAPGKARDAVASITNRGNTYYADSVKGRFTISRDNAKKTMYLQMNSLKPEDTAVYYCNVYRTGFSDYWGQGTQVTVSS
notes: also called free Nb14
As to B2, binding was put at a Kd of 2 nM.
